Measured values: patent US20250195629A1, “SITE-SPECIFIC BRAIN THERAPEUTICS” (William Marsh Rice University, priority 2023, published 2025)

B1: RLuc8.6-IKVAV: fusion of RLuc8.6 and ECM-mimicking peptide IKVAV (SEQ ID NO: 23) via GS linker; CDS SEQ ID NO: 18 (protein)
chain: MRGSHHHHHHGMASMTGGQQMGRDLYDDDDKDPMASKVYDPEQRKRMITGPQWWARCKQMNVLDSFINYYDSEKHAENAVIFLHGNATSSYLWRHVVPHIEPVARCIIPDLIGMGKSGKSGNGSYRLLDHYKYLTAWFELLNLPKKIIFVGHDWGSALAFHYAYEHQDRIKAIVHMESVVDVIESWMGWPDIEEELALIKSEEGEKMVLENNFFVETLLPSKIMRKLEPEEFAAYLEPFKEKGEVRRPTLSWPREIPLVKGGKPDVVQIVRNYNAYLRASDDLPKLFIESDPGFFSNAIVEGAKKFPNTEFVKVKGLHFLQEDAPDEMGKYIKSFVERVLKNEQGGSGSSGGSGGSGGSGIKVAV
modifications: misc_feature 1..1095 Synthetic: RLuc8.6-IKVAV
B2: RLuc8.6: recombinant His-tagged luciferase, model protein enzyme converting coelenterazine into coelenteramide; CDS SEQ ID NO: 17 (protein)
chain: MRGSHHHHHHGMASMTGGQQMGRDLYDDDDKDPMASKVYDPEQRKRMITGPQWWARCKQMNVLDSFINYYDSEKHAENAVIFLHGNATSSYLWRHVVPHIEPVARCIIPDLIGMGKSGKSGNGSYRLLDHYKYLTAWFELLNLPKKIIFVGHDWGSALAFHYAYEHQDRIKAIVHMESVVDVIESWMGWPDIEEELALIKSEEGEKMVLENNFFVETLLPSKIMRKLEPEEFAAYLEPFKEKGEVRRPTLSWPREIPLVKGGKPDVVQIVRNYNAYLRASDDLPKLFIESDPGFFSNAIVEGAKKFPNTEFVKVKGLHFLQEDAPDEMGKYIKSFVERVLKNEQ
modifications: His tag; misc_feature 1..1032 Synthetic: RLuc8.6

Columns and labels:
[1] = previously available approach; cited from earlier work
[2] = Ex vivo BLI of brain sections, retention of unmodified or engineered RLuc8.6; assay type: in vivo, mouse
Excerpt: (§1) FUS-BBBO—C57BL/6J male or female mice (12-18 weeks of age) were anaesthetized with 2.5% isoflurane in 1.5% O2 and shaved on top of skull using a trimmer. A catheter, made by a 30-gauge needle connected to PE10 tubing, was inserted into the tail vein, affixed in place using tissue glue and then flushed with 10 units (U) mL^−1 of heparin in sterile saline (0.9% NaCl). Subsequently, the mouse was mounted on the RK50 (FUS Instruments) stereotactic platform using the ear bars and bite bar/nose cone. A midline scalp incision was vertically made to expose the skull after disinfecting the site using three alternating scrubs of chlorhexidine scrub and chlorhexidine solution. The locations of Lambda and Bregma were registered in the RK50 software using the guild pointer. Next, sterile ultrasound gel was applied on the surface of skull before placing the ultrasound transducer in a tank, both of which were filled with degassed water. The mice were then sequentially injected via tail vein with purified recombinant protein in PBS buffer and approximately 1.5×10^6 DEFINITY microbubbles (Lantheus) per gram of body weight diluted in sterile saline. Immediately after injections of protein and microbubbles, the mice were insonated using RK-50 FUS system with axial and lateral diameter of 5 mm and 1.2 mm, respectively.
Ex vivo analysis of engineered RLuc8.6—FUS was performed to target three sites in the left hemisphere of C57BL6J mice (n=5 mice per group) immediately after systemic administration of RLuc8.6 (20 mg/mL, 100 mg/kg) or engineered variant (20 mg/mL, 104 mg/kg) and microbubbles by tail vein injection. The dose of engineered RLuc8.6 was increased accordingly based on their molecular weight for injecting the same number of molecules as unmodified RLuc8.6. The control group (n=5 mice) was injected intravenously with the same dose of unmodified RLuc8.6 without FUS. The mice were euthanized using CO2 without perfusion at two time points (2-day and 7-day) after FUS-BBBO procedure. Immediately afterwards, the brains were extracted, washed with ˜20 mL PBS buffer in a 50 mL conical tube for 30 s, and then cut into 2 mm sections without olfactory bulb and brainstem using a coronal Slicer (Invitrogen). The sections were individually transferred into a 6-well glass bottom plate (Cellvis) filled with 2 mL PBS buffer. BLI was performed using an IVIS spectrum imager (Perkin Elmer) immediately after adding 1 mL dissolved CTZ (cat #303-INJ, Nanolight Technology) with a final concentration of 10 μM. The parameters used here were similar as in vivo BLI with is of exposure time and field of view C. The average radiance (p/s/cm^2/sr) of each brain section was quantified with the Living Image software (Caliper Life Sciences) and summed to compare the activity retention of RLuc8.6 among different groups.

[3] = Mouse body weight analysis; assay type: in vivo; design: key to Significance of body weight difference between day 0 and 3 days after systemic administration: ns (not significant); conditions: for Weight loss: day 0 vs 2 days after injection, RLuc8.6 100 mg/kg, AADC-IKVAV 250 mg/kg
Procedure: To assess the potential impact of the RAID approach on the body weight of the mice involved in behavior analysis (n=11 mice for the FUS alone+L-DOPA group and n=14 mice for the FUS+AADC-IKVAV (SEQ ID NO: 23)+L-DOPA group), their body weight was recorded on a daily basis before and after FUS-BBBO administration. […] The body weight of the additional group of mice was also recorded in a similar manner; however, unintentionally four mice were omitted from weighing on the day following the AADC-IKVAV (SEQ ID NO: 23) injection. Similarly, the mouse body weight was recorded before and after the intravenous injection of unmodified or engineered RLuc8.6, which is related to the study presented in FIG. 5.

[4] = Immunohistochemical analysis of RLuc8.6 after FUS-BBBO delivery; assay type: in vivo, mouse; conditions: 150 mg/kg i.v., FUS-BBBO 4 sites left striatum, 1 h post-delivery
Excerpt: as §1, with “The mice were then sequentially injected via tail vein with purified recombinant protein in PBS buffer and approximately 1.5×10^6 DEFINITY microbubbles (Lantheus) per gram of body weight diluted in sterile saline. Immediately after injections of protein and microbubbles, the mice were insonated using RK-50 FUS system with axial and lateral diameter of 5 mm and 1.2 mm, respectively.” left out
Histological imaging—All histological images were obtained using a fluorescence microscope (BZ-X810, Keyence). To evaluate RLuc8.6 retention, as depicted in FIG. 2b and FIG. 3, we acquired fluorescence images of striatal sections using a ×4 objective in DAPI (nuclei) and far-red (RLuc8.6) channels. […]

[5] = In vivo bioluminescent imaging (BLI) of RLuc8.6 in the head region; design: species or system mouse
Excerpt: as §1
In vivo BLI—Two groups of mice (n=7 mice for FUS+RLuc8.6 group and n=3 mice for FUS alone group) underwent FUS-BBBO targeting one site at left striatum immediately after i.v. injection of RLuc8.6 (2 mg/mL, 8 mg/kg) or equivalent volume of PBS buffer. The third group of mice (n=6) was injected intravenously with the same dose of RLuc8.6 without FUS-BBBO procedure. BLI was conducted 1 h, 24 h, 48 h and 96 h after FUS insonation with an IVIS spectrum imager (Perkin Elmer). […] The bioluminescence signal was quantified by calculating the average radiance (p/s/cm^2/sr) in the head region of view C imaging using the Living Image software (Caliper Life Sciences).

[6] = FUS-BBBO + protein i.v., RLuc8.6-IKVAV 104 mg/kg

Molecule	time the drug lasts in the brain after FUS-BBBO delivery [1]	mean activity improvement over unmodified RLuc8.6 ([2]; 2 days after FUS-BBBO, sum of average radiance in five sections)	bioluminescence vs RLuc8.6 alone control at 7 days ([2]; 7 days after FUS-BBBO)	level of bioluminescence vs control group without applying FUS ([2]; FUS-BBBO delivery, stated with FIG. 5e (7 days))	duration of retention in the brain ([2]; after a single session of FUS-BBBO delivery)	Significance of body weight difference between day 0 and 3 days after systemic administration ([3]; FUS-BBBO + protein i.v.)	weight loss on day 3 compared to day 0 ([3]; FUS-BBBO + protein i.v.)	Weight loss [3, 6]	average fluorescence intensity of RLuc8.6 immunostaining, FUS target region vs untargeted contralateral site [4]	IVIS enzyme levels vs controls ([5]; 8 mg/kg i.v., from 24 hours after FUS-BBBO onwards)	bioluminescence signal averaged over the entire brain, FUS+RLuc8.6 vs RLuc8.6 alone without FUS ([5]; 8 mg/kg i.v., one FUS site left striatum, 1 h after FUS-BBBO, CTZ 3.5 mg/kg i.p.)	upper threshold of enzyme concentration increase within the targeted site vs untargeted controls ([5]; calculated from volume of single BBB opening site (1% of brain volume))	enzyme function within the brain parenchyma ([2]; 7-day timepoint)	Significance of body weight difference between day 0 and 3 days after systemic administration ([3]; protein i.v. alone without FUS)	Weight loss ([3]; protein i.v. alone without FUS)
NCCCC(=O)O [GABA]	approximately 100 minutes	–	–	–	–	–	–	–	–	–	–	–	–	–	–
B1	–	2.3(±0.3) fold	significantly different	113(±33) fold	1 week	ns	no significant weight loss	3.2±0.8%	–	–	–	–	–	–	–
B2	–	–	–	–	–	ns	no significant weight loss	3.4±0.7%	significantly higher immunostaining signal	statistically indistinguishable from controls	2.2(±0.3) fold	approximately 220 fold	remain functional	ns	2.1 ± 0.6%
